Measured values published in US20260139057A1 (University of California, published 2026).

Legend:
[1] = biological target: recombinant human integrin αvβ8 ectodomain (human, UniProt P06756 31-992; P26012 43-681); test: cell-based or functional assay
[2] = biological target: T1, integrin αvβ3 on HEK 293 cells stably expressing αvβ3 (Homo sapiens (Human), UniProt P06756 31-1048; P05106 27-788); test: flow cytometry on HEK 293 cells stably expressing αvβ3
T1 construct: also called αvβ3 expressing 293 cells
Excerpt: (§1) A) Binding of anti-β3 (AP3) relative to F12 IgG4, H4C8 RGD1 IgG4,H4C8 RGD3 IgG4, H3C8 RGD3 with VL Fr4 V108/L109 (mouse) IgG4, H4C8 RGD3 IgG4, H3C8 RGD3 VL Fr4 K108/V109 (human) IgG4, H4C8 RGD1 VH Fr3 E72, H4C8 RGD3 VH Fr3 E72 IgG4. HEK 293 cells stably expressing αvβ3 were stained and the percentage of relative binding to the mean fluorescence intensity of AP3 is shown, B) Expi293 cells transiently expressing αvβ6 were stained and the percentage of relative binding to the mean fluorescence intensity of 3G9 is shown, C) HEK 293 cells stably expressing αvβ8 were stained and the percentage of relative binding to the mean fluorescence intensity of HuF12 is shown. All primary antibodies were used at 2.5 ug/ml. […] Binding or 3G9 is shown and percent binding of antibodies relative to 3G9 binding to αvβ6 is shown. Dotted line indicate binding observed with each positive control antibody,
(§2) RGD ligands bind promiscuously to a number of integrins. A highly desirable quality in RGD-mimetics is to retain specificity for some but not all integrins. One highly desirable property would be a dual inhibitor to both the αvβ8- and αvβ6-integrins, without cross-reactivity to other integrins. This property would facilitate specific targeting of integrin-mediated TGF-β activation without the liability of side-effects mediated by broadly blocking other integrins. We first measured binding to αvβ3 expressing 293 cells. Binding of anti-β3 (AP3) relative to F12 IgG4, H4C8 RGD1 IgG4,H4C8 RGD3 IgG4, H3C8 RGD3 with VL Fr4 V108/L109 (mouse) IgG4, H4C8 RGD3 IgG4, H3C8 RGD3 VI Fr4 K108/V109 (human) IgG4, H4C8 RGD1 Vh Fr3 E72, H4C8 RGD3 Vh Fr3 E72 IgG4. […] Expi293 cells transiently expressing αvβ6 were stained and the percentage of relative binding to the mean fluorescence intensity of anti-β6 (3G9) determined.

[3] = biological target: T2, integrin αvβ6 ectodomain (immobilized) (human, UniProt P06756 31-992; P18564 22-709); test: binding to immobilized integrin ectodomains blocked with BSA
T2 construct: extracellular domain; Bought from R&D Systems or made in ExpiCHO cells; also called immobilized human αvβ6

[4] = biological target: T3, integrin αvβ1 ectodomain (immobilized) (Homo sapiens (Human), UniProt P06756 31-992; P05556 21-728); test: as above
T3 construct: R&D Systems; copies: 1 + 1

[5] = biological target: T4, integrin αvβ5 ectodomain (immobilized) (Homo sapiens (Human), UniProt P06756 31-992; P18084 24-719); test: as above
T4 construct: R&D Systems; copies: 1 + 1

[6] = biological target: T5, integrin αvβ6 on transfected cells (CHO cells; Expi293 cells transiently expressing αvβ6) (human, UniProt P06756 31-1048; P18564 22-788); test: flow cytometry on CHO cells expressing αvβ6, antibodies as IgG4
T5 construct: whole, on cells; Legend says 'CHO cells expressing human αvβ8 or αvβ6'; read as human; also called αvβ6 expressing CHO cells

[7] = biological target: T3, integrin αvβ1 ectodomain (immobilized); test: binding to immobilized ectodomains
[8] = biological target: T4, integrin αvβ5 ectodomain (immobilized); test: binding to immobilized ectodomains
[9] = biological target: T2, integrin αvβ6 ectodomain (immobilized); test: binding to immobilized αvβ6 ectodomain
[10] = biological target: T6, human integrin αvβ8 on transfected cells (CHO cells stably transfected; HEK 293 cells stably expressing αvβ8) (human, UniProt P06756 31-1048; P26012 43-769); test: flow cytometry on HEK 293 cells stably expressing αvβ8
T6 construct: whole, on cells; also called CHO αvβ8 cells; αvβ8 expressing CHO cells
Excerpt: as §1, with “FIG. 33 H4C8 RGD3 and H4C8 RGD1 show specificity for αvβ6 and αvβ8, VL Fr4 K108/V109 humanization improves or maintains binding, VH Fr4 Q72 improves binding over E72. A)” for “A)”, “antibody, […]” for “antibody,”

[11] = biological target: T5, integrin αvβ6 on transfected cells (CHO …); test: flow cytometry on Expi293 cells transiently expressing αvβ6, antibody at 2.5 µg/ml
Procedure: as §1, with “HEK” for “A) Binding of anti-β3 (AP3) relative to F12 IgG4, H4C8 RGD1 IgG4,H4C8 RGD3 IgG4, H3C8 RGD3 with VL Fr4 V108/L109 (mouse) IgG4, H4C8 RGD3 IgG4, H3C8 RGD3 VL Fr4 K108/V109 (human) IgG4, H4C8 RGD1 VH Fr3 E72, H4C8 RGD3 VH Fr3 E72 IgG4. HEK”
as §2, with “cells.” for “cells. Binding of anti-β3 (AP3) relative to F12 IgG4, H4C8 RGD1 IgG4,H4C8 RGD3 IgG4, H3C8 RGD3 with VL Fr4 V108/L109 (mouse) IgG4, H4C8 RGD3 IgG4, H3C8 RGD3 VI Fr4 K108/V109 (human) IgG4, H4C8 RGD1 Vh Fr3 E72, H4C8 RGD3 Vh Fr3 E72 IgG4.”, “determined. […]” for “determined.”

[12] = biological target: T6, human integrin αvβ8 on transfected …; test: flow cytometry on HEK 293 cells stably expressing αvβ8, antibody at 2.5 µg/ml
Excerpt: as §1, with “FIG. 33 H4C8 RGD3 and H4C8 RGD1 show specificity for αvβ6 and αvβ8, VL Fr4 K108/V109 humanization improves or maintains binding, VH Fr4 Q72 improves binding over E72. A)” for “A)”, “antibody, […]” for “antibody,”

T3 sequence (P06756 31-992 limits assumed, chain 1 of 2): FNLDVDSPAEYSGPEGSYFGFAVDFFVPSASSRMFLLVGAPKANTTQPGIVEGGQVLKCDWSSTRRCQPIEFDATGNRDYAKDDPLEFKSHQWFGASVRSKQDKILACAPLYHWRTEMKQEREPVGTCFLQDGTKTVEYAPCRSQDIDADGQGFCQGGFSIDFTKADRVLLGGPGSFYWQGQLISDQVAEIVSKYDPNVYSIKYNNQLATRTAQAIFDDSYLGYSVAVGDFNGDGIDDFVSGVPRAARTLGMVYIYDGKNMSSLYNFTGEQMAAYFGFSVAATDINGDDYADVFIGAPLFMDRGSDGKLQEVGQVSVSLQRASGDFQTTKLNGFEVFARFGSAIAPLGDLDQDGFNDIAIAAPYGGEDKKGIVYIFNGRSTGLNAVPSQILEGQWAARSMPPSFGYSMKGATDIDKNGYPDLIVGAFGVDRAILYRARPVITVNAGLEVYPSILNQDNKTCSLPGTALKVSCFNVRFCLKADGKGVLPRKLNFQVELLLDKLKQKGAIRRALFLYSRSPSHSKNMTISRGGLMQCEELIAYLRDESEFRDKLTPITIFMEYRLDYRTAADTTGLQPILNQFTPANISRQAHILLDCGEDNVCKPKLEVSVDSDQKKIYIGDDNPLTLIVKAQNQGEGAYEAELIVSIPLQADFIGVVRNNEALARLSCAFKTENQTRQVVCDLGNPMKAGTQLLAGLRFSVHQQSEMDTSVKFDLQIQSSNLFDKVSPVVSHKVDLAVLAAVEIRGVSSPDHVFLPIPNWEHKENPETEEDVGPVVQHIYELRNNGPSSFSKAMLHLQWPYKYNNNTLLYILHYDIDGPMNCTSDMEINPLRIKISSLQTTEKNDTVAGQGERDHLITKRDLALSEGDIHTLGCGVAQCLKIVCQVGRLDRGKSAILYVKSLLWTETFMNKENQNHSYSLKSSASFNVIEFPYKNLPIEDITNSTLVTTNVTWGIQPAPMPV
T3 sequence (P05556 21-728 limits assumed, chain 2 of 2): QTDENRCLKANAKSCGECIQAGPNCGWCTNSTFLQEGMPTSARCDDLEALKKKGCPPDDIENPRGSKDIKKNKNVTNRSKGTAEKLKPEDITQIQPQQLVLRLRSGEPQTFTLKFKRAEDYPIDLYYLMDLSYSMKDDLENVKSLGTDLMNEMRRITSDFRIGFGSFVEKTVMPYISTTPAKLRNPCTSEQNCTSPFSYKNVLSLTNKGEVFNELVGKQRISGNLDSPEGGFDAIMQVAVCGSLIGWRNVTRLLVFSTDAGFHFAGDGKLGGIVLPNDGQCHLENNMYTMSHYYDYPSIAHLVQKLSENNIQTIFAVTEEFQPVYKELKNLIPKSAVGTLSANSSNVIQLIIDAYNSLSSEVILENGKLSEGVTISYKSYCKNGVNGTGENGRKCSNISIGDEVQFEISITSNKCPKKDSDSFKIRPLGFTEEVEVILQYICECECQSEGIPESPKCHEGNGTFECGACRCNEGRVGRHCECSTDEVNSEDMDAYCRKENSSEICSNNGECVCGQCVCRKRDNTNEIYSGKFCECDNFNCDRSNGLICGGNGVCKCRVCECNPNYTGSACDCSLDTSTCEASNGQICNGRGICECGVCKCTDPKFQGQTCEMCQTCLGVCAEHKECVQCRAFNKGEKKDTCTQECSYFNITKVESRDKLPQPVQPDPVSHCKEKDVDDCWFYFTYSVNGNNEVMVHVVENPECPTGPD
T2 sequence (P06756 31-992, chain 1 of 2): as the sequence (P06756 31-992 limits assumed, chain 1 of 2) above
T2 sequence (P18564 22-709, chain 2 of 2): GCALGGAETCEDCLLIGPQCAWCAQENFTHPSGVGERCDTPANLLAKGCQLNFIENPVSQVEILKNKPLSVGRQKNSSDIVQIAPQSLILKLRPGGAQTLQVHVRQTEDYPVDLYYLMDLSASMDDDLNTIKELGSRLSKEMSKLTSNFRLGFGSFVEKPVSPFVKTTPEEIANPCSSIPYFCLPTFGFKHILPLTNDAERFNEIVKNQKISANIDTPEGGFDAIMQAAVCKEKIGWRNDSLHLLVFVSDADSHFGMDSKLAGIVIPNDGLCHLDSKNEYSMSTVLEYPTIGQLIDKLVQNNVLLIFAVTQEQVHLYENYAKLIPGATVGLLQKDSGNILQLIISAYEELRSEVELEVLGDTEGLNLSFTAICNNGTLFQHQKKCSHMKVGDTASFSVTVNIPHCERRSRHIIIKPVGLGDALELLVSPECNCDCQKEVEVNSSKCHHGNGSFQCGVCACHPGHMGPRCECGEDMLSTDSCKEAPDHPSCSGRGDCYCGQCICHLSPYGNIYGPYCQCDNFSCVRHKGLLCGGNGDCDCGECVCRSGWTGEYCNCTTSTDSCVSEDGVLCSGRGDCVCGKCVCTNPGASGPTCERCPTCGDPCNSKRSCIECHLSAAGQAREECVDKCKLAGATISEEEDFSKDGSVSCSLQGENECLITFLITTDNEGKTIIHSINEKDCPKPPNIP
T4 sequence (P06756 31-992 limits assumed, chain 1 of 2): as the sequence (P06756 31-992 limits assumed, chain 1 of 2) above
T4 sequence (P18084 24-719 limits assumed, chain 2 of 2): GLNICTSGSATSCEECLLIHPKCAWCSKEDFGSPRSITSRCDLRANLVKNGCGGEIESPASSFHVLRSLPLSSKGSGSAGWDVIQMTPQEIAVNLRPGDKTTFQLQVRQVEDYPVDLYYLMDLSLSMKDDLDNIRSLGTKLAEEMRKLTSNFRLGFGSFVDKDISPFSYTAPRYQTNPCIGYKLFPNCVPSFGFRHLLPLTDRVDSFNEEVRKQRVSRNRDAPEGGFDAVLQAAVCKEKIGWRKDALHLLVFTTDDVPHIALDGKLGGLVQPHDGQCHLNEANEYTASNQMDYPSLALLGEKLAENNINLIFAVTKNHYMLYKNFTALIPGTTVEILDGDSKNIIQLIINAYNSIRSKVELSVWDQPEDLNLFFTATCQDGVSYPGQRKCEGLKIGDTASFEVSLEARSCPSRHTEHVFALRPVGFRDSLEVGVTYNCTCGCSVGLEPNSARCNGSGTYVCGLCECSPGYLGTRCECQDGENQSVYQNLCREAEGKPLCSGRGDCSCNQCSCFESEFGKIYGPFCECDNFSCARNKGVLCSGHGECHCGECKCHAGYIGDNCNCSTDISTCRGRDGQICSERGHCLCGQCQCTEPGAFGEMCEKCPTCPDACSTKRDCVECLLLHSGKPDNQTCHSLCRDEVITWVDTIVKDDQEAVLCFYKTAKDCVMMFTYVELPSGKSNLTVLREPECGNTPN
T1 sequence (P06756 31-1048 limits assumed, chain 1 of 2): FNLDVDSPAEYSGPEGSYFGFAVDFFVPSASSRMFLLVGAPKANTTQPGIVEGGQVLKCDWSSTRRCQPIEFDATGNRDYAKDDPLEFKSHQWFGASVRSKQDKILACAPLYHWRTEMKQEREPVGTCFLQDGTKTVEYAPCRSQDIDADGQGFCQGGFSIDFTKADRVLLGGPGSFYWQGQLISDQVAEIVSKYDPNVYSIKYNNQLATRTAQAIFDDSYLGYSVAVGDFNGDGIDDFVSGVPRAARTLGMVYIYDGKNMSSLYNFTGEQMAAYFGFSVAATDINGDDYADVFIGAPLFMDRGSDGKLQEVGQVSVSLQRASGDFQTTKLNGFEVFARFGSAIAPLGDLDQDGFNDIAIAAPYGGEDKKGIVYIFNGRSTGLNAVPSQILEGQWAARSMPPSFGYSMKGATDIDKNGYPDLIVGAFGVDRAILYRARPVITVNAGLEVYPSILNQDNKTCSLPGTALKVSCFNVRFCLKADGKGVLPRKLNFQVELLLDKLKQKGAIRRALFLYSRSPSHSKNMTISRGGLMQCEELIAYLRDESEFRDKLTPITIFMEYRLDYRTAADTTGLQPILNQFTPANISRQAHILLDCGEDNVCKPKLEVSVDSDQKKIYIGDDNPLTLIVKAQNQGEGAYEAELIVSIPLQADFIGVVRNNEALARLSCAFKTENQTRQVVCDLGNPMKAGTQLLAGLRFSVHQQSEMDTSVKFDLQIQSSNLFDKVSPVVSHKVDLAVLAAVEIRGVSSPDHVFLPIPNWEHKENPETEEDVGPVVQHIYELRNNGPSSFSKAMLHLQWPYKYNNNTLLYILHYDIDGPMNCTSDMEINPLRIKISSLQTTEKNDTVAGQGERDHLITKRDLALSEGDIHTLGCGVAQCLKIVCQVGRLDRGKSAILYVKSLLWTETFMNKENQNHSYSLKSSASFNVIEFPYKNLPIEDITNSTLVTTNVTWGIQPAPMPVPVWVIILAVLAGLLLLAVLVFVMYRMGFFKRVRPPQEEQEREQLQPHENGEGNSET
T1 sequence (P05106 27-788 limits assumed, chain 2 of 2): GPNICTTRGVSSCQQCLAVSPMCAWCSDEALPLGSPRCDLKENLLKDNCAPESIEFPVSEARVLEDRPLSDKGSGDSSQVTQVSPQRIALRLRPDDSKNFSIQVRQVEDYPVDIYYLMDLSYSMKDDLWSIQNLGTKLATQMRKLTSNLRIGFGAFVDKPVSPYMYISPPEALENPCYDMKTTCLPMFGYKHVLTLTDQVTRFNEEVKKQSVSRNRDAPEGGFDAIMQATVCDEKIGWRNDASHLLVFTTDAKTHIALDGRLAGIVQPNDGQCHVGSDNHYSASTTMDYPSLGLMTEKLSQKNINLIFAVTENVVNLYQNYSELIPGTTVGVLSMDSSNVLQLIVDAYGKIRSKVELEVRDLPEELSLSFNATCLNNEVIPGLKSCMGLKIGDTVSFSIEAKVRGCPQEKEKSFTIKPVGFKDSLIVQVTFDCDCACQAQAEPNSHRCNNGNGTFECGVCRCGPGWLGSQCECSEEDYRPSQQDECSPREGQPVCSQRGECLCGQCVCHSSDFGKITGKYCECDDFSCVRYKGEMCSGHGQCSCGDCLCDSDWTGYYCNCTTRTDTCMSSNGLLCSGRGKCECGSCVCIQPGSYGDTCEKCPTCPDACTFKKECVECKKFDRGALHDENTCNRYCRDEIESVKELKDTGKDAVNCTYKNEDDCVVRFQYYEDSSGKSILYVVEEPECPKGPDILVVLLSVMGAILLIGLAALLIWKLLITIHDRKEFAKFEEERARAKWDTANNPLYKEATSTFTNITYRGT

Row | ED50 of the inhibition of αvβ8-mediated TGF-β activation (immobilized human αvβ8, TMLC GARP/L-TGF-β reporter cells) [1] [mg/L] | binding result [2] | binding result [3] | binding result [4] | binding result [5] | binding result [6] | binding result [7] | binding result [8] | binding result [9] | binding result [10] | binding result [11] | binding result [12] | Binder
1 | 0.14 | no binding (tested: 2.5 µg/ml) | no binding | no binding | no binding | no binding (tested: 1 µg/mL) | – | – | – | – | – | – | HuC6D4 F12 IgG4 (antibody, also called HuF12) heavy: QIQLVQSGAEVKKPGASVKISCKASGYTFTKYSMHWVRQAPGQGLEWVARINTETGEPTFADDFRGRFTVTLDTSTSTAYLEIRSLRSDDTAVYFCAIFYYGRDTWGQGTTLTVSSASTKGPSVFPLAPCSRSTSESTAALGCLVKDYFPEPVTVSWNSGALTSGVHTFPAVLQSSGLYSLSSVVTVPSSSLGTKTYTCNVDHKPSNTKVDKRVESKYGPPCPPCPAPEFLGGPSVFLFPPKPKDTLMISRTPEVTCVVVDVSQEDPEVQFNWYVDGVEVHNAKTKPREEQFNSTYRVVSVLTVLHQDWLNGKEYKCKVSNKGLPSSIEKTISKAKGQPREPQVYTLPPSQEEMTKNQVSLTCLVKGFYPSDIAVEWESNGQPENNYKTTPPVLDSDGSFFLYSKLTVDKSRWQEGNVFSCSVMHEALHNHYTQKSLSLSPGK VL: EIVMTQSPATLSVSPGERVTMSCKSSQSLLHSRSRKNYLAWYQQKPGQAPRLLIYWASTRESGVPARFSGSGSGTEFTLTISSVQSEDFAVYYCKQSYNLLSFGQGTVLEIKR
2 | – | no binding (tested: 2.5 µg/ml) | – | – | – | – | no binding | no binding | binds | no binding (tested: 2.5 µg/ml) | binds | – | H4C8 RGD1 VH Fr3 E72 (antibody, IgG4, V domains shown) VH: QVQLVQSGAEVKKPGASVKVSCKVSGYTLTRQSMHWVRQAPGKGLEWMGRINTETGEPTYAQKFQGRVTMTEDTSTDTAYMELSSLRSEDTAVYFCAIFYYGRDTWGQGTTVTVSS VL: EIVMTQSPATLSVSPGERVTLSCKSSQSLLRRGDLATIHGNALAWYQQKPGQAPRLLIYWASTRETGVPARFSGSGSGTEFTLTISSLQSEDFAVYYCKQSYNLLSFGQGTKVEIKR
3 | – | no binding (tested: 2.5 µg/ml) | – | – | – | – | no binding | no binding | binds | – | binds | binds | H4C8 RGD3 VH Fr3 E72 IgG4 (antibody, V domains shown, IgG4) VH: QVQLVQSGAEVKKPGASVKVSCKVSGYTLTRQSMHWVRQAPGKGLEWMGRINTETGEPTYAQKFQGRVTMTEDTSTDTAYMELSSLRSEDTAVYFCAIFYYGRDTWGQGTTVTVSS VL: EIVMTQSPATLSVSPGERVTLSCKSSQSLLGRGDLGRLKKNALAWYQQKPGQAPRLLIYWASTRETGVPARFSGSGSGTEFTLTISSLQSEDFAVYYCKQSYNLLSFGQGTKVEIKR
